# Experimental data reported in paper PMC3025461.
# B1: S. cerevisiae Smc1 hinge protein (S480-E681), wild type (domain or fragment)
# chain: SANNQEYDLNFKLRETLVKIDDLSANQRETMKERKLRENIAMLKRFFPGVKGLVHDLCHPKKEKYGLAVSTILGKNFDSVIVENLTVAQECIAFLKKQRAGTASFIPLDTIETELPTLSLPDSQDYILSINAIDYEPEYEKAMQYVCGDSIICNTLNIAKDLKWKKGIRGKLVTIEGALIHKAGLMTGGISGDANNRWDKEE
# Columns and labels:
# [1] = target: S. cerevisiae Smc1 hinge protein (S480-E681), wild type (S. cerevisiae) (UniProt P32908); assay: ITC
# [2] = target: S. cerevisiae Smc1DD hinge protein (S480-E681; K554D, K661D) (S. cerevisiae) (UniProt P32908); assay: ITC
# [3] = target: S. cerevisiae Smc3-FLAG hinge protein (S. cerevisiae); assay: pull-down
Kd [1],Kd [2],reduction in dH against wild-type Smc1/Smc3 [2],half time [3],half-life of the hinge dimer [3],Molecule
22 nM,–,–,–,–,"S. cerevisiae Smc3 hinge protein (T495-L695), wild type (domain or fragment)"
24 nM,29 nM,4 kcal/mol,–,–,"S. cerevisiae Smc3AAA hinge protein (T495-L695; R665A, K668A, R669A) (domain or fragment)"
–,–,–,30 min,15 to 30 min,B1
